The values that follow come from publication PMC8960284 (Cell Reports Methods, 2022).

Assay in all cases: FRET or BRET
In general terms: In BRET a luciferase serves as donor, and the signal depends on an acceptor being close.

In data set [1] the target is mutant Huntingtin exon1 with 54 glutamines, fused to mVenus-mCherry (Q54-VC).
The target in data set [2] is wild-type FUS tagged with mVenus-mCherry at the C terminus (FUS-VC) (UniProt P35637).
Data set [3] has as its target mutant Huntingtin exon1 with 39 glutamines, fused to mVenus-mCherry (Q39-VC).
Data set [4] has as its target mutant Huntingtin exon1 (mHttex1) with a polyglutamine stretch of Q71, fused to mVenus-mCherry (Q71-VC).
Data set [5] concerns the molecule itself.

As for “mutant Huntingtin exon1 with 54 glutamines, fused to mVenus-mCherry (Q54-VC) (domain or fragment)”, in data set [1], the FRET/donor ratio of the final foci stood at 1.53.
Take “wild-type FUS tagged with mVenus-mCherry at the C terminus (FUS-VC) (from UniProt P35637 1-526) (natural protein)”: in data set [2], the increase of FRET/donor ratio in foci over the dispersed state is 0.06.
In the case of “mutant Huntingtin exon1 with 39 glutamines, fused to mVenus-mCherry (Q39-VC) (domain or fragment)”, the FRET/donor ratio of the final foci in data set [3] was found to be 1.6.
Consider “mutant Huntingtin exon1 (mHttex1) with a polyglutamine stretch of Q71, fused to mVenus-mCherry (Q71-VC) (domain or fragment)”, for which, in data set [4], the FRET/donor ratio in foci was 1.3 to 1.4 and the FRET/donor ratio of the final foci stood at 1.48.

B1: FUS R521C tagged with mVenus-mCherry at the N terminus (VC-FUS_(R521C)) (natural protein)
chain: MASNDYTQQATQSYGAYPTQPGQGYSQQSSQPYGQQSYSGYSQSTDTSGYGQSSYSSYGQSQNTGYGTQSTPQGYGSTGGYGSSQSSQSSYGQQSSYPGYGQQPAPSSTSGSYGSSSQSSSYGQPQSGSYSQQPSYGGQQQSYGQQQSYNPPQGYGQQNQYNSSSGGGGGGGGGGNYGQDQSSMSSGGGSGGGYGNQDQSGGGGSGGYGQQDRGGRGRGGSGGGGGGGGGGYNRSSGGYEPRGRGGGRGGRGGMGGSDRGGFNKFGGPRDQGSRHDSEQDNSDNNTIFVQGLGENVTIESVADYFKQIGIIKTNKKTGQPMINLYTDRETGKLKGEATVSFDDPPSAKAAIDWFDGKEFSGNPIKVSFATRRADFNRGGGNGRGGRGRGGPMGRGGYGGGGSGGGGRGGFPSGGGGGGGQQRAGDWKCPNPTCENMNFSWRNECNQCKAPKPDGPGGGPGGSHMGGNYGDDRRGGRGGYDRGGYRGRGGDRGGFRGGRGGGDRGGFGPGKMDSRGEHRQDCRERPY
In the case of B1, the “increase of FRET/donor ratio in foci over the dispersed state” value in data set [5] worked out at 0.15.
